Laboratory results: US20140056890A1 (ONCEMED PHARMACEUTICALS, published 2014)

Target: T1, pYAP (human, UniProt P46937, phosphorylated; site not stated in Example 13 (detected with phospho-YAP1 antibody #4911, Cell Signaling Technology; the anti-pYAP antibody of Examples 5 and 7 is to Ser127))
T1 construct: full length, endogenous; also called phospho-YAP; phospho-YAP1
Assay: co-immunoprecipitation: anti-FLAG IP from lysate of transiently transfected HEK-293T cells, Western blot with anti-phospho-YAP1
Experimental: To validate these protein complexes, immunoprecipitates (see method described above) were prepared from HEK-293T cells transiently transfected with FLAG-tagged full-length CADM1, CADM3, PVR, PVRL1, and PVRL3, with CADM3-CD4TM-GFP and LGR5-CD4TM-GFP constructs as internal negative controls. Total cell lysates and the immunoprecipitate eluates were run on 4-12% Tris-Glycine Midi Gels (Life Technologies/Invitrogen, Grand Island, N.Y.) and transferred by iBlot onto PVDF membranes (Life Technologies/Invitrogen).

T1 sequence (P46937 whole entry): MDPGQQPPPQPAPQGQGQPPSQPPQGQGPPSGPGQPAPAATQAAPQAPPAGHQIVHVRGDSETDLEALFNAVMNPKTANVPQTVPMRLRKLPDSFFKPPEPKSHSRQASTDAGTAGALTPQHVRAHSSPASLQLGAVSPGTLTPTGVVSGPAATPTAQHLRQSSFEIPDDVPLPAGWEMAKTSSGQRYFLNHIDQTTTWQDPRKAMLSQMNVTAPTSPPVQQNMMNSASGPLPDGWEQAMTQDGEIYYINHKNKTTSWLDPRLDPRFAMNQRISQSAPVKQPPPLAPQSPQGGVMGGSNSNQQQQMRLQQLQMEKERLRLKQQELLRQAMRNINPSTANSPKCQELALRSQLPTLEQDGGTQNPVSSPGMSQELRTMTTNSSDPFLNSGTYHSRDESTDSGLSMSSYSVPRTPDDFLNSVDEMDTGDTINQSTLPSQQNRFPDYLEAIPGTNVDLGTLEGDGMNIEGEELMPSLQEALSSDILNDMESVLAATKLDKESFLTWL

B1: FLAG-tagged full-length PVR (receptor)
chain: WPPPGTGDVVVQAPTQVPGFLGDSVTLPCYLQVPNMEVTHVSQLTWARHGESGSMAVFHQTQGPSYSESKRLEFVAARLGAELRNASLRMFGLRVEDEGNYTCLFVTFPQGSRSVDIWLRVLAKPQNTAEVQKVQLTGEPVPMARCVSTGGRPPAQITWHSDLGGMPNTSQVPGFLSGTVTVTSLWILVPSSQVDGKNVTCKVEHESFEKPQLLTVNLTVYYPPEVSISGYDNNWYLGQNEATLTCDARSNPEPTGYNWSTTMGPLPPFAVAQGAQLLIRPVDKPINTTLICNVTNALGARQAELTVQVKEGPPSEHSGMSRNAIIFLVLGILVFLILLGIGIYFYWSKCSREVLWHCHLCPSSTEHASASANGHVSYSAVSRENSSSQDPQTEGTR
notes: Bait, transiently expressed in HEK-293T cells and immunoprecipitated from lysates with anti-FLAG agarose; also called Poliovirus receptor; NECL-5
binding result: no binding
